According to article PMC9014129:

Biological target: CK2β^1–193-DBCO-Sulfo-Cy5 (human) (UniProt P67870)
Experiment: other fluorescence titration; quenching of the fluorescence of 30 nM CK2β^1–193-DBCO-Sulfo-Cy5 by 0.3 nM to 5 µM CK2α variant; Monolith NT.115, mode initial fluorescence; 25°C; 500 mM NaCl, 25 mM TRIS/HCl, pH 8.5, 0.05% Tween 20

Molecule	Kd
human CK2α (from UniProt P68400 1-391) (enzyme)	13.6 nM
human CK2α^Lys198Arg (enzyme) MSGPVPSRARVYTDVNTHRPREYWDYESHVVEWGNQDDYQLVRKLGRGKYSEVFEAINITNNEKVVVKILKPVKKKKIKREIKILENLRGGPNIITLADIVKDPVSRTPALVFEHVNNTDFKQLYQTLTDYDIRFYMYEILKALDYCHSMGIMHRDVKPHNVMIDHEHRKLRLIDWGLAEFYHPGQEYNVRVASRYFRGPELLVDYQMYDYSLDMWSLGCMLASMIFRKEPFFHGHDNYDQLVRIAKVLGTEDLYDYIDKYNIELDPRFNDILGRHSRKRWERFVHSENQHLVSPEALDFLDKLLRYDHQSRLTAREAMEHPYFYTVVKDQARMGSSSMPGGSTPVSSANMMSGISSVPTPSPLGPLAGSPVIAAANPLGMPVPAAAGAQQ	6.2 nM
